Article doi:10.1101/2022.03.25.485857

Each substance was assayed against human α-thrombin (human) (assay: enzyme inhibition).

| Substance | Ki [nM] |
| --- | --- |
| wildtype madanin-1 (natural protein) | 16 |
| madanin-1 with a single sTyr at Tyr35 (natural protein) | 6.1 |
| madanin-1 with a single sTyr at Tyr32 (natural protein) | 1.3 |
| wildtype chimadanin (natural protein) | 12.9 |
| chimadanin sulfated at both Tyr28 and Tyr31 (natural protein) | 0.1 |

Second part, the substance after the results:

| Ki [nM] | Substance |
| --- | --- |
| 1.5 | chimadanin with a single sTyr at Tyr31 (natural protein) |
| 0.6 | chimadanin with a single sTyr at Tyr28 (natural protein) |
| 0.5 | madanin-1 sulfated at both Tyr32 and Tyr35 (natural protein) |
